Values of other authors, collected in paper PMC4854875.

Molecular target: UBE2T (Homo sapiens) (UniProt Q9NPD8)
Chain of UniProt Q9NPD8 (Q9NPD8 whole entry): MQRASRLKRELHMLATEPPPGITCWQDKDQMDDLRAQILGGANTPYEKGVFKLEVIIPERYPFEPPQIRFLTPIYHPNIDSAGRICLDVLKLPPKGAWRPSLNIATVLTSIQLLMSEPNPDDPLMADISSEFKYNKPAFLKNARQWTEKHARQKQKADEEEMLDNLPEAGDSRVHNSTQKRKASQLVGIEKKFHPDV

FANCL (from UniProt Q9NW38)
Kd: 454 nM
